Results reported in the nanobody polyreactivity screen of Harvey et al. (2022).

Assay: yeast display, Sf9 membrane polyspecificity reagent, FACS + sequencing; frameworks hold sequencing errors
Method in brief: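 Synthetic nanobody libraries on Saccharomyces cerevisiae BJ5465 were galactose-induced for 36–48 hours, stained 1 hour at 4 °C with 10% biotinylated, detergent-solubilized Sf9 membrane reagent and enriched on streptavidin microbeads. FACS then separated cells into low and high (top ~1%) gates by anti-HA (expression) and streptavidin (reagent binding) fluorescence. Genes were colony-PCR amplified, MiSeq 2 × 250 sequenced and CDR-length filtered. A clone's polyreactivity label is that of its gate of origin.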

Sequence | polyreactivity (PSR sort gate)
QVQLVESGGGLVQSGGSLRLSCAASGGTFRYNAMGRYRQAPGKERELVAAITSVGITNYADSVKGRFTISRDNAKNTVYLQMNSLNPEDTAVYYCAKRYYRYGARSWYYPYDYWGQGTQVTVSS | high polyreactivity
QVQLVESGGGLVQAGGSLRLSCSASGITFWLYDKGWYIQAPGKERELVARITYSGTSTYYADSVKGRFTISRDNAKNTVYLQMNSLEPEDTAVYYCAADLTYHYPRYITYEYWGQGTQVTVSS | low polyreactivity
QVQLVESGGGLVQAGGSLRLSCAASGRIFITNTMGWSRPAPGKERELVAAISRTGGSTYYADSVKGRFTISRDNAKNTVYLQMNSLKPEDTAVYYCAKRYYGSPQLRYYYWGQGTQVTVSS | high polyreactivity
QVQLVESGGGLVQAGGSLRLSCAASGSIFLKYTMGWYRQAPGKERELVAAITSGGTTNYADSVKGRFTISRDNAKNTVYLQMNSLKPEDTAVYYCARDSYQLGLIRDPLEYDYWGQGTQVTVSS | low polyreactivity
QVQLVESGGGLVQAGGSLRLSCAASGSIFKLNAMGWYRQAPGKERELVAAISRGGRTYYADSVKGRFTISRDNAKNTVYLQMNSLKPEDTAVYYCAADASSQIWYYPRDDYWGQGTLVTVSS | low polyreactivity
QVQLVESGGGLVQAGGSLRLSCAASGRTFRHYAMGWYRQAPGKDRELVAAISGSGGRTYYADSVKGRFTISRDNAKNTVYLQMNSLKPEDTAVYYCATRHTTRFYWGQGTQVTVSS | high polyreactivity
QVQLQESGGGLVQVGGSQRLSCAASGNIFYNYAMGWYRHAQGKEREFDATINHGTSINYADSVKGRFTISRDNAKNTVYLQMNSLKPEDTAVYYCAARVVRYGYKYYYWGQGTQVTVSS | low polyreactivity
QVQLVESGGGLVQAGGSLRLSCAASGRIFPVNAMGWYRQATGKERELVARISWRGGTYYADSVKGRFTISRDNAKNTVYLQMNSLKPEDTAVYYCAATLPSTSYWYQYGYWGQGTQVTVSS | high polyreactivity
QVQLVESGGGLVQAGGSLRLSCAASGRTFVSYTMVWYRQAPGKERELVAAISSGGSTTYADSVKGRFTISRDNAKNTVYLQKNSLKPEDTAVYYCNARYGWSYWSKYDYWGQGTQVTVSS | high polyreactivity
QVHLVESGGALVQAGGSLRLSCAASGFIFNHYAMGWYRQAPGKEQEFVAAISWSGGSTYYADSVKGRFTISRDNAKITVYLQMNSLKPEDTAVYYCAAAVWYRGWYRYDYWGQGTQVTVSS | low polyreactivity
QVQLVESVGGLVQAGGSLRLSCAASGFTFSTNAMGWYRQAPGKERELVAAISRGGSTNYADSVKGRFTISRDNAKNTVYLQMNSLKPEDTAVYYCNAYLSPDEEEYYWGQGTQVTVSS | low polyreactivity
QVQLVESGGGLVQAGGSLRLSCAASGITFYRYTMGWYRQAPGKERELVAAIRSGGSTYYADSVKGRFTISRDNAKNTVYLQMNSLKPEDTAVYYCAAPYYRYNVPYYGGNGGDYWGQGTQVTVSS | high polyreactivity
QVQLVESGGGLVQAGGSLRLSCAASGYSFVRNAMGWYIQAPGKERELVAAISGSGGSTYYADSVKGRFTISRDNAKNTVYLQMNSLKPEDTAVYYCAADYATVTWRGIAYDYWGQGTQVTVSS | low polyreactivity
QVQLVESGGGLVQAGGSLRLSCAASGRIFVRYTMGWYRQAPGKERELVARITSGGSTNYADSVKGRFTISRDNAKNTVYLQMNSLKPEDTAVYYCAKSYGPRFGYWGQGTQVTVSS | low polyreactivity
QVQLVESGGGLVQAGCSHSLSCAASGLTFDVYTMGWYRQAPGKERELVATISQTYYADSVKGRFTISRDNAKNTVYLQMNSLKPEDTAVYYCAANGFKAQYRDIVYDYGYWGEGTQVTVSS | low polyreactivity
QVQLVESGGGLVQAGGSLRLSCAASGFTFAKYAMGWYRQAPGKERELVAAIRSRGDTTYYADSVKGRFTISRDNAKNTVYFQLNSLKPEDTAVYYCSARSYFLVDGSRYDYCGQGTQVTVSS | high polyreactivity
QVQLVESGGGLVQAGGRLRLSCAASGFTFSGYGMGWSRQAPGKERELVAAISNSGGRTYADSVKGRFTISRDTAQKTVYLQMNSLKPEDTAVYSCAKKPGGFSQASRVDYDYWGQGTQVTVSS | low polyreactivity
QVQLVESGGGIVQAGGSLRLSCAASGLTFRRNAMGWSRQAPGKERELVAAISSGGVRTYYADSVKGRFTISRDNAKNTVYLQMNSLKPEDTAVYYCAKDDLLVVRNVWFDYWGQGTQVTVSS | low polyreactivity
QVQLVESGGGLVQAGGSLRLSCAASGSIFRGYAMGWYRQAPGKERELVASIRWRGGRTNYADSVKGRFTISRDNAKNTVYLQRNSLKPEDTAVYYCNADQQTIRSAKNDYWGQGTQVTVSS | low polyreactivity
QVQLVESGGGLVQGGGSLSLSCAASGITFLNYAMGWYRQAPGKERELVAAITWRGGRTYYADSVKGRFTISRDNEKNTVYLQMNSLKPEDTAVYYCARRPGYALTWRVSGRYDYWGQGTQVTVSS | high polyreactivity
QVQLVESGGGLVQAGGSLRLSCAASGIIFNDYAMGWYRQAPGNERELVATISWSGGSTYADSVKGLFTISRDNAKNTVYLQMNSLKPEDTAVYYCANQPTVYHHYGLGYWGQGTQVTVSS | low polyreactivity
QVQLVESGGGLVQAGGSLRLSCAASGFIFAYYTMGWYRQAPGKERELVAAISWSGGTTYYADSVKGRFTISRDNAKNTVYLQMNSLKPEDTAVYYCNAYPKWLGYYEDDYWGQGTQVTVSS | low polyreactivity

Sequence | polyreactivity (PSR sort gate)
QVQLVESGGGLVQAGGSLRLSCAASGFIFVDYAMGWYRQAPGKERELVASIDRSDGSTYYADSVKGRFTISRDNAKKTVYLQMNSLKPEDTAVYYCAADDPLYSISTGDYWGQGTQVTVSL | low polyreactivity
QVQLVESGGGLVQAGGSLRLSCAASGFIFYAYAMGWSRQAPGKERELVAAISGSGGSTYYADSVKGRFTISRDNAKNTVYLQMNSLKPEDTAVYYCAARSRVSNRSYYYWGQGTQVTVSS | high polyreactivity
QVQLVESGGGLVQAGGSLRLSCAASGFIFDHNARGWYRQAPGKERELVAAITWRGDSTYYADSVKGRFTISRDNAKNTVYLQMNSLKPEDTAVYYCNADAILVYYGKLDYWGQGTQVTVSS | low polyreactivity
QVQLVETGGGLVQAGGSLRLSCAASGRIIDTYAMGWYRQAPGKERELVAAITRRGGSTYYADSVKGRFTISRDNAKNTVYLQMNSLKPEDTAVYYCAKSLVNRHYDYWGQGTQVTVSS | low polyreactivity
QVQLVESGGGLVQAGGSLRLSCAASGRNYRYAMGWYRQAPGKEWALVAAISSGGRTNYADSVKGRFTISRDNAKNTVYLQMNSLKPEDTAVYYCAAEAPFYVKGRRYRGYDYWGQGTQVTVSS | high polyreactivity
QVQLEESGGGLVQAGGSLRLSCAASGFTFYGNAMGWYRQAPGKERELVATIRYRGGRTYYADSVKGRFTISRDNAKNTVYLQMNSLKPEDTAVYYCNRVGYQYGSDQEDDYWGQGTQVTVSS | high polyreactivity
QVQLVESGGGLVQAGGSLRLSCAASGSTFYIYGMGWYRQAPGKERELVARISSGGSTYADSVKGRFTISRDNAKNTVYLQMNSLKPEDTAVYYCAAAAARTYRRYRYEGYYYWGQGTQVTVSS | high polyreactivity
QVQLVESGGGLVQAGGSLRLSGSASGIIFIYYTIGWYRQAPGTESELVAVITTSGDGTYYADSVKGRFTISRDNAKNTVYLQMNSLKPEDTAVYYCAASYSTWVSTRNDYWGQGTQVTVSS | low polyreactivity
QVQLVESGGGLVQAGGSLRLSCAASGRIFYQNAMGWYRQAPGKERELVAAISSSGDSTYADSVKGRFTISRDNAKNTVYLQMNSLKPEDTAVYYCAAGVGWEFDYWRQGTQVTVSS | low polyreactivity
QVQLVESGGGLVQAGGSLRLSCAASGFTFKSYAMGWYRQAPGKERELVASISRRGGSTYYADSVKGRFTISRDNAKNTVYLQMNSLKPEDTAVYYCAADKRPPYILDYWGLGTQVTVSS | high polyreactivity
QVQLVESGGGLVLAGGSLRLRCAASGRIFGQYTMGWYRQAPGKERELVAAISRSSSSKYADSVKRRFTISRDNAKNTGYLQMNSLKPEDTAVYYCAAYVYYYGGRTYDYWGQGTQLTVSS | high polyreactivity
QVQLVESGGGLVQAGGSLRLSCAASGSTFLYYAMGWYRQAPGKESELVAAIDSGGSTYYADSVKGRFTISRDNAKNTVYLQMNSLKPEDTAVYYCNADPPPEYYPDKDNYWGQGTQVTVSS | low polyreactivity
QVQLVESGGGLVQAGGSLRLSCAASGSIFGYAMGWYRQAPGKERELVAAISFSGVSTYYADSVKGRFTISRDNAKNTVYLQMNSLKPEDTAVYYCNAYSDGDEDYWGQGTQVTVSS | low polyreactivity
QVQLVESGGGLVQAGGSLRLSCAASGFIFYQYAMGWYRQAPGKERELVAVINKSGGRTYYADSVKGRFTISRDNAKNTVYLQMNSLKPEDPAVYYCNAVSKLAVNLDYWGQGTQVTVSS | high polyreactivity
QVQLVESGGGLVQAGGSLRLSCAASGGTFGSYAMGWSRPAPGKERELVAAIDYSGADTYYADSVKGRFTISRDNAKNTVYLQMNSLKPEDTAVYYCNAEFESGHDLDWYDYWGQGTQVTVSS | low polyreactivity
QVPLVESGGGLVQAGGSLRLSCAASGRTFTPNGMGWYRQAPGKERELVAAITYGGGITDYADSVKGRFTISRDNAKNTVYLQMNSLKPEDTAVYYCAATTLSFEGGKYWSKYDYWGQGTQVTVSS | low polyreactivity
QVQLVESGGGLVQAGGTLRLSCAASGSTFGYNAMGWYRQAPGKERELVARITSSGGSTYYADSVKGRFTISRDNAKNTVYLQMNSLKPEDTAVYYCAAGYPYRAVYRYYYWGQGTQVTVSS | high polyreactivity
QVQLVESGGGLVQAGGSLRLSCAASGYIFFFYAMGWYRQAPGKERELVASITYRGGSTYYADSVKGRFTISRDNSKNTVYLQMNSLKPEDTAVYYCAADVRASRFDYWGQGTQVTVSS | low polyreactivity
QVQLVESGGGLVQAGGSLRLSCAASGSIFNGYALGWYRQAPGKERELVAAISSGGCTNYADSVKGSFTISRDNAKNTVYLQMNSLKPEDTAVYYCDKDYGYYWPWHYIASYEYDYWGQGTQVTVSS | low polyreactivity
QVQLVESGGGLVQAGGSLRLSCAASGSIFNYNAMGWYRQAPGKERELVAAISSGGSTNYADSVKGRFTISRDNAKNTVYLQMNSLKPEDTAVYYCAKRWWVYYPRYDYWGQGTQVTVSS | high polyreactivity
QVQLVESGGGLVQAGGSLRFSCAASGRPFPYYVMGWYRQAPGKERELVAAINSGGRTNYADSVKGRFTISRDNAKNTVYLQMNSLKPEDTAVYYCTKRGHPARLGYYYWGQGTQVNVSS | low polyreactivity
